{"source": "patent US20220125837A1", "about": "“METHODS FOR CONTROLLED ELIMINATION OF THERAPEUTIC CELLS” (Bellicum Pharmaceuticals, Inc., priority 2014, published 2022)", "molecules": {"B1": {"name": "D330A-N405Q: modified Caspase-9 polypeptide having a substitution at position 330 and a substitution at position 405 (protein, UniProt P55211 1-416, looked up, variant D330A N405Q)", "chain": "MDEADRRLLRRCRLRLVEELQVDQLWDALLSRELFRPHMIEDIQRAGSGSRRDQARQLIIDLETRGSQALPLFISCLEDTGQDMLASFLRTNRQAAKLSKPTLENLTPVVLRPEIRKPEVLRPETPRPVDIGSGGFGDVGALESLRGNADLAYILSMEPCGHCLIINNVNFCRESGLRTRTGSNIDCEKLRRRFSSLHFMVEVKGDLTAKKMVLALLELAQQDHGALDCCVVVILSHGCQASHLQFPGAVYGTDGCPVSVEKIVNIFNGTSCPSLGGKPKLFFIQACGGEQKDHGFEVASTSPEDESPGSNPEPDATPFQEGLRTFDQLAAISSLPTPSDIFVSYSTFPGFVSWRDPKSGSWYVETLDDIFEQWAHSEDLQSLLLRVANAVSVKGIYKQMPGCFQFLRKKLFFKTS", "modifications": "iCasp9, fused to FKBP12 F36V domain"}, "B2": {"name": "F319A: chimeric modified Caspase-9 polypeptide (protein, UniProt P55211 1-416, looked up, variant F319A)", "chain": "B1 chain with F319A, A330D, Q405N", "modifications": "fused to FKBP12 F36V dimerization domain", "notes": "chimeric modified Caspase-9 polypeptide"}, "B3": {"name": "N405F: chimeric modified Caspase-9 polypeptide (protein, UniProt P55211 1-416, looked up, variant N405F)", "chain": "B1 chain with A330D, Q405F", "modifications": "fused to FKBP12 F36V dimerization domain", "notes": "as for B2"}, "B4": {"name": "^402GCFNF^406ISAQT: Caspase-9 polypeptide with the equivalent 5 residues from Caspase-10 (protein, UniProt P55211 1-416, looked up, variant G402I C403S F404A N405Q F406T)", "chain": "B1 chain with A330D, G402I, C403S, F404A, F406T"}, "B5": {"name": "D327G: chimeric modified Caspase-9 polypeptide (protein)", "chain": "VDGFGDVGALESLRGNADLAYILSMEPCGHCLIINNVNFCRESGLRTRTGSNIDCEKLRRRFSSLHFMVEVKGDLTAKKMVLALLELARQDHGALDCCVVVILSHGCQASHLQFPGAVYGTDGCPVSVEKIVNIFNGTSCPSLGGKPKLFFIQACGGEQKDHGFEVASTSPEDESPGSNPEPDATPFQEGLRTFGQLDAISSLPTPSDIFVSYSTFPGFVSWRDPKSGSWYVETLDDIFEQWAHSEDLQSLLLRVANAVSVKGIYKQMPGCFNFLRKKLFFKTSASRA"}, "B6": {"name": "L329K: chimeric modified Caspase-9 polypeptide (protein)", "chain": "B5 chain with G195D, L197K"}, "B7": {"name": "D327K: chimeric modified Caspase-9 polypeptide (protein)", "chain": "B5 chain with G195K"}, "B8": {"name": "Q328R: chimeric modified Caspase-9 polypeptide (protein)", "chain": "B5 chain with G195D, Q196R"}, "B9": {"name": "T317A: chimeric modified Caspase-9 polypeptide (protein)", "chain": "B5 chain with T185A, G195D"}, "B10": {"name": "T317C: chimeric modified Caspase-9 polypeptide (protein)", "chain": "B5 chain with T185C, G195D"}, "B11": {"name": "D327R: chimeric modified Caspase-9 polypeptide (protein)", "chain": "B5 chain with G195R"}, "B12": {"name": "A331K: chimeric modified Caspase-9 polypeptide (protein)", "chain": "B5 chain with G195D, A199K"}, "B13": {"name": "L329G: chimeric modified Caspase-9 polypeptide (protein)", "chain": "B5 chain with G195D, L197G"}, "B14": {"name": "F326K: chimeric modified Caspase-9 polypeptide (protein)", "chain": "B5 chain with F194K, G195D"}, "B15": {"name": "Q328K: chimeric modified Caspase-9 polypeptide (protein)", "chain": "B5 chain with G195D, Q196K"}, "B16": {"name": "A316G: chimeric modified Caspase-9 polypeptide (protein)", "chain": "B5 chain with A184G, G195D"}}, "note": "Residue numbers refer to the chain shown, from its start. In names and notes the source's numbering stands. Entries after “also recorded” stand apart in the source; their conditions may differ."}
{"test_system": "HEK293T/16 cells", "experiment": "Secreted alkaline phosphatase (SEAP) surrogate killing assay of iCasp9 mutants", "assay_type": "cell-based, human", "conditions": "1 μg iCasp9 per million cells; no AP1903; higher SEAP = lower basal activity", "protocol": "Early passage HEK293T/16 cells (ATCC, Manassas, Va.) were maintained in IMDM, GlutaMAX™ (Life Technologies, Carlsbad, Calif.) supplemented with 10% FBS, 100 U/mL penicillin, and 100 U/mL streptomycin until transfection in a humidified, 37° C., 5% CO2/95% air atmosphere. Cells in logarithmic-phase growth were transiently transfected with 800 ng to 2 μg of expression plasmid encoding iCasp9 mutants and 500 ng of an expression plasmid encoding SRα promoter driven SEAP per million cells in 15-mL conical tubes. […] GeneJammer® Transfection Reagent at a ratio of 3 μl per ug of plasmid DNA was used to transiently transfect HEK293T/16 cells in the absence of antibiotics. 100 μl or 2 mL of the transfection mixture was added to each well in 96-well or 6-well plate, respectively.\nBriefly, after 65° C. heat denaturation for 45 minutes to reduce background caused by endogenous (and serum-derived) alkaline phosphatases that are sensitive to heat, 5 μl of supernatants was added to 95 μl of PBS and added to 100 μl of substrate buffer, containing 1 μl of 100 mM 4-methylumbelliferyl phosphate (4-MUP; Sigma, St. Louis, Mo.) re-suspended in 2 M diethanolamine. Hydrolysis of 4-MUP by SEAP produces a fluorescent substrate with excitation/emission (355/460 nm), which can be easily measured. […] 1000-ul of the mixture was seeded onto each well of a 96-well plate. […] For the assay, 4-methylumbelliferyl phosphate substrate was hydrolyzed by SEAP to 4-methylumbelliferon, a metabolite that can be excited with 364 nm and detected with an emission filter of 448 nm. Since SEAP is used as a marker for cell viability, reduced SEAP reading corresponds with increased iCaspase-9 activities."}
{"molecule": "B1", "relative SEAP activity Units (basal activity)": 205772}
{"test_system": "HEK293T/16 cells", "experiment": "Secreted alkaline phosphatase (SEAP) surrogate killing assay of iCasp9 mutants", "assay_type": "cell-based, human", "conditions": "2 μg iCasp9 per million cells; no AP1903"}
{"molecule": "B1", "relative SEAP activity Units (basal activity)": 174366}
{"test_system": "HEK293T/16 cells", "experiment": "Secreted alkaline phosphatase (SEAP) surrogate killing assay of iCasp9 mutants", "assay_type": "cell-based, human", "conditions": "SEAP assay without AP1903; relative to wild type Caspase-9"}
{"molecule": "B1", "basal activity, in words": "intermediate"}
{"molecule": "B2", "basal activity, in words": "no effect"}
{"molecule": "B3", "basal activity, in words": "lowered basal activity"}
{"molecule": "B4", "basal activity, in words": "reduced basal activity"}
{"molecule": "B5", "basal activity, in words": "did not lower basal activity"}
{"molecule": "B6", "basal activity, in words": "did not lower basal activity"}
{"molecule": "B7", "basal activity, in words": "did not lower basal activity"}
{"molecule": "B8", "basal activity, in words": "did not lower basal activity"}
{"molecule": "B9", "basal activity, in words": "lower basal activity; also recorded: reduce basal activity"}
{"molecule": "B10", "basal activity, in words": "no effect"}
{"molecule": "B11", "basal activity, in words": "did not lower basal activity"}
{"molecule": "B12", "basal activity, in words": "did not lower basal activity"}
{"molecule": "B13", "basal activity, in words": "did not lower basal activity"}
{"molecule": "B14", "basal activity, in words": "did not lower basal activity"}
{"molecule": "B15", "basal activity, in words": "did not lower basal activity"}
{"molecule": "B16", "basal activity, in words": "lower basal activity"}
{"test_system": "HEK293T/16 cells", "experiment": "Secreted alkaline phosphatase (SEAP) surrogate killing assay of iCasp9 mutants", "assay_type": "cell-based, human", "conditions": "SEAP assay without AP1903; relative to wild type Caspase-9; listed as iCasp9 D330A N405Q"}
{"molecule": "B1", "basal activity, in words": "low to undetectable basal activity"}
